Target: recombinant human IL-8 (interleukin-8) (human)
Experiment: SPR; Biacore; IL-8 immobilised on a CM5 chip by amine coupling (Fc2), BSA on the reference cell (Fc1); soluble recombinant Mtb proteins as analytes at 2.5, 5, 10 and 20 uM; 22 °C, PBS pH 7.4 with 0.005% P20; flow 5 ul/min; one-to-one model

Chain of recombinant M. tuberculosis rSahH (His-tagged, from pHis-sahH) (P9WGV3 whole entry): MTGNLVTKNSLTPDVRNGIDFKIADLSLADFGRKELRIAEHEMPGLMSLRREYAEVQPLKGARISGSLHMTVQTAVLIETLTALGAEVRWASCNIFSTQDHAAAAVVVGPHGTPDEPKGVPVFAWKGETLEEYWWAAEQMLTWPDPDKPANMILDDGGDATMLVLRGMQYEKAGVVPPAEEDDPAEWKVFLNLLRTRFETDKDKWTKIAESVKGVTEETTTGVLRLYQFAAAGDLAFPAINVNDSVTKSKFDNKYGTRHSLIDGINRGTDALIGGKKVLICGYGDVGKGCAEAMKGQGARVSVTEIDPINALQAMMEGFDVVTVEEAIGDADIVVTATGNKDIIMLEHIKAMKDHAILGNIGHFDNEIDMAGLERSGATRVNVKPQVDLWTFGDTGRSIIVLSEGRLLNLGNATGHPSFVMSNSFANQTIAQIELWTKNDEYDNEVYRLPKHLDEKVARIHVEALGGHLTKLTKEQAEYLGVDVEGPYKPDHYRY

“recombinant M. tuberculosis rSahH (His-tagged, from pHis-sahH) (from UniProt P9WGV3 1-495) (enzyme)” was tested, and the Kd was 0.714 nM.

Reference: paper PMC4734655
